Assay results from PMC4136698.

Target: SNAP tag–polyproline peptide fusion (…)
Experiment: pull-down

“Src^Y527F (from UniProt P00523 84-533) (enzyme)” showed a percent of kinase retained by the immobilized SH3 domain ligand of 74% and a percent of total kinase retained on beads of 11%.
